Results: paper PMC3777949, “Dimerization Mediates Thermo-Adaptation, Substrate Affinity and Transglycosylation in a Highly Thermostable Maltogenic Amylase of Geobacillus thermoleovorans” (PLoS ONE, 2013)

Legend:
[1] = target: Gt-Mamy D109A mutant (Geobacillus thermoleovorans)
[2] = target: maltogenic amylase of Geobacillus thermoleovorans (Gt-Mamy), recombinant wild type (Geobacillus thermoleovorans); experiment: SEC; Sephacryl S-200 high resolution column, 100 mM sodium phosphate pH 7 with 50 mM NaCl, 0.3 ml/min; masses from a plot of molecular weight vs Ve/Vo against standards

Ea required for thermal denaturation [1] | T1/2 of thermal inactivation at 80, 90 and 100°C [1] | stoichiometry N [2] | Substance
141 kJ/mol | 44.6 h |  | Gt-Mamy D109A mutant (enzyme)
 |  | 2 | maltogenic amylase of Geobacillus thermoleovorans (Gt-Mamy), recombinant wild type (enzyme)
